According to the supplement of paper PMC10724198:
± gives the standard deviation of the averaged measurements.

test system: Saccharomyces cerevisiae; assay: protein stability index of tFT-peptide fusion (C-terminal peptide) (PSI (0-1 scale)); higher = more stable (slower turnover); conditions: genetic background: wild type; temperature: 30 C
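Also: PSI is a weighted mean of sequencing reads over stability bins, variants kept only with over 10 reads, mCherry proximal and sfGFP distal, peptide attached via GGGS linker.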

Sequence	protein stability index
LVCHDWFSFYMF	0.64 ± 0.035
LVDEGRGLRWSR	0.679 ± 0.0075
LVFPRCAFGFCF	0.6791 ± 0.0047
LVFRSMFFFRLF	0.66 ± 0.017
LVGGFLVSGRAR	0.69 ± 0.051
LVGLNNSFVSKA	0.6448 ± 0.0039
LVGTFTEKFRVC	0.578 ± 0.023
LVHVPVCFLSVL	0.557 ± 0.0021
LVLLPLPLPLFP	0.578 ± 0.015
LVMQSVQDDPVF	0.692 ± 0.0081
LVPLPLPPPPPS	0.672 ± 0.0028
LVQPHGSRFGLA	0.644 ± 0.012
LVRPGSTRDKRT	0.736 ± 0.034
LVSLSPCPSSPL	0.671 ± 0.014
LVVEAIRSRAFK	0.6919 ± 0.0028
LVVGFRVGLRGV	0.669 ± 0.035
LVVGGLVLSGNL	0.668 ± 0.057
LVWGQPWKMPVV	0.699 ± 0.012
LWCGGWVCVLGW	0.532 ± 0.013
LWGGAGLRCGGF	0.726 ± 0.017
LWGVGAGPEDVG	0.68 ± 0.014
LWRVRCGLGMSG	0.681 ± 0.15
LYDQTSQDRRVF	0.6974 ± 0.004

Sequence	protein stability index
LYDSNLILSIPC	0.617 ± 0.14
LYFGVGSICLVS	0.649 ± 0.043
LYHFYTASPCLI	0.536 ± 0.044
LYLLPLCRPFPY	0.692 ± 0.013
LYLRNFGSPFLV	0.65 ± 0.024
LYRILQAPRSSP	0.703 ± 0.079
LYSAHLAPGNAD	0.656 ± 0.039
MCGLVGDVLAVG	0.762 ± 0.1
MEAAARRMIKRK	0.6 ± 0.04
MFLVLEGIDSRV	0.65 ± 0.051
MGGGGARAVVVG	0.627 ± 0.021
MGGRAEGWVPVP	0.68 ± 0.15
MGLRDPEWSGDI	0.673 ± 0.018
MGQVMTKQQRKI	0.668 ± 0.016
MGWGALGARGLV	0.683 ± 0.029
MGYDYAPISALF	0.691 ± 0.1
MIKINHRIKIKY	0.7115 ± 0.0039
MKEKTNLETKDT	0.691 ± 0.013
MLLLIDTSGGWS	0.71 ± 0.011
MLRMSVSRGGLL	0.729 ± 0.011
MPFTSDAAALAP	0.689 ± 0.03
MPIKGRHSRSLK	0.66 ± 0.044
MPPRVLSALAPL	0.642 ± 0.0023

Sequence	protein stability index
MPRRLSLNLDYL	0.6563 ± 0.0064
MRDRDSVDNMDG	0.666 ± 0.025
MRPSLSDAMMSS	0.687 ± 0.055
MRRTFQHQGRAN	0.676 ± 0.031
MRSTFFFLQHRH	0.614 ± 0.013
MSGKIMVLQKEE	0.643 ± 0.013
MSIDQPLLGTGV	0.638 ± 0.034
MSLSYYFSPVYS	0.625 ± 0.044
MSRRHDQESIHV	0.673 ± 0.021
MVIYGKEGWRIQ	0.661 ± 0.07
MYSSIFTHVFGV	0.734 ± 0.024
NARGRGAGGAST	0.626 ± 0.048
NASASTLPFPLD	0.71 ± 0.054
NDAKQKRLTFET	0.671 ± 0.048
NDFFVVFSVGEC	0.613 ± 0.041
NDGIKYQSEKRR	0.7 ± 0.02
NDHEQGPTQARG	0.669 ± 0.044
NDQASVLSFRSV	0.664 ± 0.063
NEPQDQLQEQAT	0.665 ± 0.069
NFIKCASDIRID	0.67 ± 0.027
NFPPTPECSFVS	0.643 ± 0.0086
NFTPRKHARQRP	0.736 ± 0.0088
NFTSYDIYLSCS	0.671 ± 0.016

Sequence	protein stability index
NGCVRNVSSLVF	0.607 ± 0.066
NGGFIGVYICRT	0.73 ± 0.13
NGGKDAVVLGGG	0.636 ± 0.054
NGGSAKVYLGKI	0.652 ± 0.019
NGKFLREKMRWG	0.662 ± 0.036
NGKGECSLESSS	0.677 ± 0.013
NGKKYWQEYGWG	0.686 ± 0.025
NGMKDKTKIAKI	0.701 ± 0.008
NGRPGPAEPELW	0.692 ± 0.043
NGVRGRGGQWVQ	0.725 ± 0.03
NGVVAYHVQSFC	0.6 ± 0.011
NHRQPNSTKNRT	0.547 ± 0.044
NHVWGSNRCSSC	0.689 ± 0.04
NIIYKRKKGRRW	0.6889 ± 0.001
NIKIILPWNPPE	0.667 ± 0.013
NIKITVHSTMDM	0.698 ± 0.019
NINHTNLKENKD	0.667 ± 0.0099
NINVSFLSNECR	0.6735 ± 0.0021
NISIFGSRLRVV	0.533 ± 0.034
NITIEGVELERV	0.715 ± 0.029
NKHYIQSHTDPD	0.698 ± 0.023
NKKIKKDKIKGK	0.692 ± 0.031
NKKKKQRMKRNG	0.719 ± 0.12

Sequence	protein stability index
NKKRKYRKNKRG	0.6096 ± 0.0051
NKKTYHRPTKNY	0.693 ± 0.015
NKRKDEIKPRNV	0.581 ± 0.049
NKRKTKNKERRA	0.65 ± 0.012
NKSPWYYILQPM	0.738 ± 0.082
NKSTAEVKMEIR	0.686 ± 0.064
NKVLHPGGKPLT	0.6637 ± 0.0062
NKWKASRKYRKR	0.723 ± 0.025
NLARPTRTFAGV	0.684 ± 0.013
NLCTPRFATDFG	0.629 ± 0.028
NLFDHIHRSTPS	0.761 ± 0.0078
NLIGVVKSEYHR	0.574 ± 0.01
NMLWSLGRGGSC	0.6648 ± 0.0029
NMRQGPLAGLAG	0.748 ± 0.072
NNKSNKKKERKE	0.698 ± 0.053
NNMFFTREYEKL	0.674 ± 0.013
NNMSFLPMLDYT	0.65 ± 0.042
NNQKTKLNEKNC	0.647 ± 0.048
NNVCGIIFRQHH	0.632 ± 0.048
NPARPRPPPRER	0.595 ± 0.057
NPDVYKRNYQHK	0.605 ± 0.035
NPLHGNIRLSPL	0.685 ± 0.046
NPPELPVTENNP	0.821 ± 0.17

Sequence	protein stability index
NPPSRLPRLPLH	0.728 ± 0.043
NPWYCVWYGAIT	0.626 ± 0.068
NQEIGLRNQGRV	0.69 ± 0.033
NQPSHPRPHAER	0.666 ± 0.045
NRELTAVTFQRY	0.709 ± 0.05
NRKGNKGEKNTK	0.676 ± 0.048
NRPKVNSQERGY	0.666 ± 0.02
NRQNYAEDLKSC	0.683 ± 0.02
NRSIFITMDSSL	0.676 ± 0.011
NRSMFSSQNDNA	0.671 ± 0.066
NRYKIKKKIERR	0.6 ± 0.039
NSGSNKSNNRKC	0.726 ± 0.032
NSPRKKPHKSIT	0.711 ± 0.014
NSSPCPLPLLPP	0.662 ± 0.036
NSVHVRGRFITK	0.678 ± 0.023
NSVPSPSRSLPP	0.666 ± 0.081
NTCKMRTRNIKA	0.635 ± 0.0068
NTEKNKRDRYQK	0.722 ± 0.019
NTNPVHLKTHQT	0.713 ± 0.011
NTQLPASPVSQG	0.628 ± 0.027
NTSRSKKKVNSK	0.704 ± 0.035
NTSVSGTGVSSK	0.762 ± 0.12
NTTIQLWVERRQ	0.679 ± 0.063

Sequence	protein stability index
NTVLPTPTMSPP	0.702 ± 0.04
NVIVRVPFVLEE	0.692 ± 0.059
NVMVRIGKGGVD	0.6664 ± 0.0041
NVSFHRSHLLYF	0.654 ± 0.0067
NYCKGFLLRANI	0.645 ± 0.071
NYKFENQIAKPP	0.655 ± 0.077
PAACLSLPPPPS	0.706 ± 0.031
PAFGLSPPSFST	0.728 ± 0.089
PAFPSPFPTSSL	0.647 ± 0.099
PAISPPSPPPLP	0.685 ± 0.047
PALPPAPPPPPP	0.693 ± 0.044
PANASAEGDTSP	0.682 ± 0.0082
PANLLHPSDPPP	0.612 ± 0.0064
PAPLLPPSWRHP	0.716 ± 0.015
PAPPAPPPPPYL	0.735 ± 0.087
PAPPHPRHPPPP	0.649 ± 0.018
PAPPHTLPVWAD	0.728 ± 0.029
PAPPLPPLPLLP	0.684 ± 0.013
PAPPPHIPPSPS	0.651 ± 0.023
PAPRARTPLDRI	0.683 ± 0.039
PAPRFPFLFHPL	0.776 ± 0.035
PAQDCAATGVRR	0.672 ± 0.037
